Measured values reported in patent US20170165365A1 (SYMPHOGEN A S, published 2017).
Numbering of substitutions follows the chain as printed.

Experiments:
[1] = target: cynomolgus HER2 antigen (cynomolgus monkey); test: SPR (ProteOn XPR36), IgG captured by anti-human Fc, soluble monovalent antigen, 1:1 fit
[2] = target: T1, human HER3 antigen (Sino Biologicals) (human, UniProt P21860 20-643); test: ELISA, coated hu HER3
T1 construct: Bought soluble antigen; also called human antigen
Description: (§1) Antibody-antigen binding was measured by ELISA with coated antigens. Human antigens were obtained from Sino Biologicals. All other antigens were produced in-house by transient expression in CHO or HEK293 cells. Chimeric and humanized antibodies, as well as an isotype control antibody, were incubated with the coated antigens at different concentrations. After wash, bound antibodies were detected by HRP-(horse radish peroxidase)-conjugated secondary antibodies.

mouse HER3 antigen = target: T2, mouse HER3 antigen (mouse, UniProt Q61526 20-641, limits assumed); test: ELISA, coated mu HER3
T2 construct: In-house antigen coated for ELISA; also called mouse antigen; murine HER3
Description: as §1

murine HER4 antigen = target: T3, murine HER4 antigen (mouse, UniProt Q61527 26-652, limits assumed); test: ELISA, coated mu HER4
T3 construct: In-house antigen coated for ELISA; also called mouse HER4
T3 sequence (looked up): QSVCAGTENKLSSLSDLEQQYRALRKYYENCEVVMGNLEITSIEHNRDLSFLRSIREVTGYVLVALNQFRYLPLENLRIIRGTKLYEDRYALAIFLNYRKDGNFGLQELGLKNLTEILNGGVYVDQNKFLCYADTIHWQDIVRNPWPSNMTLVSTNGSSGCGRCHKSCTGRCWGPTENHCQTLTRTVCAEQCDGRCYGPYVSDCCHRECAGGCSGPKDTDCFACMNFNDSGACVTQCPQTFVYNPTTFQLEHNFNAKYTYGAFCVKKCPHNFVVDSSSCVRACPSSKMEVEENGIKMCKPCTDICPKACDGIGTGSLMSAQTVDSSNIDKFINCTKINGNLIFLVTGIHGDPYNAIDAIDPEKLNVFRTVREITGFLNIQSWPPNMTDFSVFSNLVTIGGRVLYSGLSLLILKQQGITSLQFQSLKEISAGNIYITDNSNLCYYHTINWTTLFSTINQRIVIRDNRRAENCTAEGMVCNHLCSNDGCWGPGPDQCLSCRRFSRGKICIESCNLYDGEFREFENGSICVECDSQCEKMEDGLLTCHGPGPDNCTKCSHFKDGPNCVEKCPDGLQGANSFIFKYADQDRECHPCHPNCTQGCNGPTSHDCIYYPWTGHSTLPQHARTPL
Description: as §1

[3] = target: T4, human EGFR antigen (Sino Biologicals) (human, UniProt P00533 25-645); test: ELISA, coated hu EGFR
T4 construct: Bought soluble antigen; also called human antigen
Description: as §1

human HER4 antigen = target: T5, human HER4 antigen (human, UniProt Q15303 26-649, limits assumed); test: ELISA, coated hu HER4
T5 construct: Antigen coated for ELISA
T5 sequence (looked up): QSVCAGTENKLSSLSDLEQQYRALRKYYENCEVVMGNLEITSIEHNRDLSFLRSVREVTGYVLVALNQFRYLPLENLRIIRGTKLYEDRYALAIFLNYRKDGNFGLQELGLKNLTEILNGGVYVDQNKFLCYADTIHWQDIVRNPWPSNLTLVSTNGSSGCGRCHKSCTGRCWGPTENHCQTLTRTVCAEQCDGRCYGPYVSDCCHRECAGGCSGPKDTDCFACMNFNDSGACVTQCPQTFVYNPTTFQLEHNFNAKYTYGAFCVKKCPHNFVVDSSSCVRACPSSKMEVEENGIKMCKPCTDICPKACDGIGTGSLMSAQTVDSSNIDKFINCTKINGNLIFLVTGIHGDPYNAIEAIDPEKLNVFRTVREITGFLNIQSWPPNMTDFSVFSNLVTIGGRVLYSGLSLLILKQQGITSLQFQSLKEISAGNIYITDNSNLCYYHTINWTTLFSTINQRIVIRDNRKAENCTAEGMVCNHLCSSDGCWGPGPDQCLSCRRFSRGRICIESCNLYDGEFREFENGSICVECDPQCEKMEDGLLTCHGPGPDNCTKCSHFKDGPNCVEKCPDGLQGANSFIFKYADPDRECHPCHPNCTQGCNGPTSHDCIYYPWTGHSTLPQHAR
Description: as §1

mouse EGFR antigen = target: T6, mouse EGFR antigen (mouse, UniProt Q01279 25-647, limits assumed); test: ELISA, coated mu EGFR
T6 construct: In-house antigen coated for ELISA; also called mouse antigen; murine EGFR
Description: as §1

mouse HER2 antigen = target: T7, mouse HER2 antigen (mouse, UniProt P70424 23-653, limits assumed); test: ELISA, coated mu HER2
T7 construct: In-house antigen coated for ELISA; also called mouse antigen; murine HER2
Description: as §1

cynomolgus HER3 antigen = target: T8, cynomolgus HER3 antigen (cynomolgus monkey, UniProt G7PIG5 20-643); test: ELISA, coated cy HER3
T8 construct: In-house antigen; also called cynomolgus antigen
Description: as §1

[4] = target: T9, human HER2 antigen (Sino Biologicals) (human, UniProt P04626 23-652); test: SPR (ProteOn XPR36), IgG captured by anti-human Fc, soluble monovalent antigen, 1:1 fit
T9 construct: Bought soluble antigen; also called human antigen
Description: (§2) Kinetic binding analysis of the purified humanized variants was performed on a ProteOn™ XPR36 biosensor (BioRad, USA) employing an IgG capture assay as described by Canziani et al. (Anal. Biochem. (2004) 325:301-307) that allows for measurement of antibody affinities of whole IgG molecules against soluble antigen under monovalent conditions. Briefly, approximately 5000 resonance units (RU) of a monoclonal mouse anti-human IgG Fc antibody (GE Healthcare, Denmark) was conjugated to a GLC chip surface (BioRad, USA) according to the manufacturer's instructions, followed by capture of individual antibodies of the invention or a negative control on the anti-Fc sensor surface. […] Next, 250 μl monovalent antigen (Sino Biologicals) was injected at a flow rate of 50 μl/min in serial threefold dilutions from 100 nM stock to generate response curves. The chip surface was regenerated between cycles by stripping the captured antibody/antigen complexes off the surface with a 10-second injection of 3 M MgCl₂ (GE Healthcare, Denmark) repeated three times. Finally, binding responses were fitted to a Langmuir 1:1 binding model for calculation of the on-rate (kon or ka), off-rate (koff or kd) and affinity (KD) constants using double referencing.

cynomolgus EGFR antigen [5] = target: T10, cynomolgus EGFR antigen (cynomolgus monkey, UniProt A0A2K5WK39 25-645); test: ELISA, coated cy EGFR
T10 construct: In-house antigen; also called cynomolgus antigen
Description: as §1

[6] = target: T9, human HER2 antigen (Sino Biologicals); test: ELISA, coated hu HER2
Description: as §1

cynomolgus EGFR antigen [7] = target: T10, cynomolgus EGFR antigen; test: SPR (ProteOn XPR36), IgG captured by anti-human Fc, soluble monovalent antigen, 1:1 fit
Description: as §2

[8] = target: T4, human EGFR antigen (Sino Biologicals); test: as above
Description: as §2

T2 sequence (Q61526 20-641 limits assumed): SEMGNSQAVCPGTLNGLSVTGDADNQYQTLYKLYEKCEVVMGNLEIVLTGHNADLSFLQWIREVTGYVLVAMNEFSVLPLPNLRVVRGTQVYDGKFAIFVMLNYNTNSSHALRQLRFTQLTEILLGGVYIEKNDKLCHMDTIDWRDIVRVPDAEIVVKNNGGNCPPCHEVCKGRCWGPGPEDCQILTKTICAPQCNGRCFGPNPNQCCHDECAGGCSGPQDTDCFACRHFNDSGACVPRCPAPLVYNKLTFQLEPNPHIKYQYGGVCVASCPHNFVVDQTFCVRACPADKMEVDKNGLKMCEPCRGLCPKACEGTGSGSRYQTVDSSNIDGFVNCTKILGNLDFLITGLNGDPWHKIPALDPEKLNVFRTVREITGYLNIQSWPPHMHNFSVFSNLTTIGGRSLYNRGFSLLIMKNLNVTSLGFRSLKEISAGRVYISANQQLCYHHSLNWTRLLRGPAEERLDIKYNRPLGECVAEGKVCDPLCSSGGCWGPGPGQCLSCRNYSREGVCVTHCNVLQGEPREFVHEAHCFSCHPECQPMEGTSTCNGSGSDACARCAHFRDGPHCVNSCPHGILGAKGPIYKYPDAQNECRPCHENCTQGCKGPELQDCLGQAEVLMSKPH
T7 sequence (P70424 23-653 limits assumed): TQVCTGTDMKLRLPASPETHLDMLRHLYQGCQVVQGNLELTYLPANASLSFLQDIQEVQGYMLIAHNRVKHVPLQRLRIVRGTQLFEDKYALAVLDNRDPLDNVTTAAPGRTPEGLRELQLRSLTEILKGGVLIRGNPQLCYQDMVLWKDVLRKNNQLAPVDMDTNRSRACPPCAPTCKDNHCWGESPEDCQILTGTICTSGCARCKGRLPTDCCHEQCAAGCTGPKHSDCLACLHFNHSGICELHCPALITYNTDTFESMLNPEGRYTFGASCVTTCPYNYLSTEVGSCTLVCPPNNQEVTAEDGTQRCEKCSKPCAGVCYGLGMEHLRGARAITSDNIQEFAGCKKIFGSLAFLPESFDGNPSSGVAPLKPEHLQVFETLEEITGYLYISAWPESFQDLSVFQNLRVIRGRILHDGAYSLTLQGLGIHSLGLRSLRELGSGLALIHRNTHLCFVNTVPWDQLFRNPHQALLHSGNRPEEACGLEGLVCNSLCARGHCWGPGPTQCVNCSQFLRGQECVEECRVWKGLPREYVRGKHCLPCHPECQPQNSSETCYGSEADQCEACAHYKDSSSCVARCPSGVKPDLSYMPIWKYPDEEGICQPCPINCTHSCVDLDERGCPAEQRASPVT
T8 sequence (G7PIG5 entry or part of it): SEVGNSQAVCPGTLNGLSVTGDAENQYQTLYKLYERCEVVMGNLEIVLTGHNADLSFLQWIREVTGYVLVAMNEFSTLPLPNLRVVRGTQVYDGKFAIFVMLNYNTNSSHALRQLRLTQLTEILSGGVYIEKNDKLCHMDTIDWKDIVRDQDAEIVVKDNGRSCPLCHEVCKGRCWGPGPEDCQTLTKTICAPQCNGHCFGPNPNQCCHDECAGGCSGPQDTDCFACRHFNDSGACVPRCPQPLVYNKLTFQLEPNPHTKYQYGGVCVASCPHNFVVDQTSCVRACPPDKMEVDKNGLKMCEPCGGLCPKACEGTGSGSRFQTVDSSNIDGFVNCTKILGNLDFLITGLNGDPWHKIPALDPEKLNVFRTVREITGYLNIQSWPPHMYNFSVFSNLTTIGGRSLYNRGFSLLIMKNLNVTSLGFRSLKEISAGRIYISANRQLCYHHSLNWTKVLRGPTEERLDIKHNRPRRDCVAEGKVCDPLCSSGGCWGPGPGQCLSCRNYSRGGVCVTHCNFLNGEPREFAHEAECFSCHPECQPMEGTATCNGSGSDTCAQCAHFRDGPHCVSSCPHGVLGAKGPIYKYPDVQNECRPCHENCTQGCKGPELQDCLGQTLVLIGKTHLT

B1: chimeric anti-HER2 antibody 4517 (antibody, V domains shown)
VH: EVQLVESGGDLVKPGGSLKLSCAASGFTFSSYGMSWVRLTPDKRLEWVATISGGGSYTYYPDSVKGRFTISRDIAKSTLYLQMSSLKSEDTAVYYCARKGNYGNYGKLAYWGQGTSVTVS
VL: DIQMTQSPASLSVSVGETVTITCRASENIYSNLAWYQQEQGKSPQLLVYAATNLADGVPSRFSGSGSGTQYSLKINSLQSEDFGSYYCQHFWGTPWTFGGGTKLEIKR
notes: light chain entry is full length
Kd [1]: 3.7 nM | koff [1]: 0.00086 s⁻¹ | kon [1]: 230000 M⁻¹ s⁻¹ | binding result [2]: no binding (tested: 40 nM) | binding result (mouse HER3 antigen): no binding (tested: 40 nM) | binding result (murine HER4 antigen): no binding (tested: 40 nM) | binding result [3]: no binding (tested: 40 nM) | binding result (human HER4 antigen): no binding (tested: 40 nM) | binding result (mouse EGFR antigen): no binding (tested: 40 nM) | binding result (mouse HER2 antigen): no binding (tested: 40 nM) | binding result (cynomolgus HER3 antigen): no binding (tested: 40 nM) | Kd [4]: 1.1 nM | koff [4]: 0.00029 s⁻¹ | kon [4]: 260000 M⁻¹ s⁻¹ | binding result (cynomolgus EGFR antigen [5]): no binding (tested: 40 nM)

B2: humanized anti-EGFR antibody 10292 (antibody, V domains shown)
VH: EVQLVESGGGLVQPGGSLRLSCAASGFAFSYSDMSWVRQAPGKRLEWVSYMSSAGDVTFYSDTVKGRFTISRDNAKNSLYLQVNSLRAEDTAVYYCVRHRDVAMDYWGQGTTVTVSS
VL: DIQMTQSPSSLSASVGDRATITCRSSQSLVHSNGNTYLHWYQQKPGKAPKLLIYKVSNRFSGVPSRFSGSGSGTDFTLTISSLQPEDFATYFCSQSTHVPTFGGGTKVEIK
binding result [2]: no binding (tested: 40 nM) | binding result (mouse HER3 antigen): no binding (tested: 40 nM) | binding result (murine HER4 antigen): no binding (tested: 40 nM) | binding result (human HER4 antigen): no binding (tested: 40 nM) | binding result [6]: no binding (tested: 40 nM) | binding result (mouse EGFR antigen): no binding (tested: 40 nM) | binding result (mouse HER2 antigen): no binding (tested: 40 nM) | binding result (cynomolgus HER3 antigen): no binding (tested: 40 nM) | Kd (cynomolgus EGFR antigen [7]): 0.35 nM

B3: humanized anti-EGFR antibody 11294 (antibody, V domains shown)
VH: B2 VH with M104I
VL: DVVMTQSPLSLPVTLGQPASISCRSSQSLVHSNLNTYLHWYQQRPGQSPRLLIYKVSNRFSGVPDRFSGSGSGTDFTLKISRVEAEDVGVYFCSQSTHVPTFGGGTKVEIK
binding result [2]: no binding (tested: 40 nM) | binding result (mouse HER3 antigen): no binding (tested: 40 nM) | binding result (murine HER4 antigen): no binding (tested: 40 nM) | binding result (human HER4 antigen): no binding (tested: 40 nM) | binding result [6]: no binding (tested: 40 nM) | binding result (mouse EGFR antigen): no binding (tested: 40 nM) | binding result (mouse HER2 antigen): no binding (tested: 40 nM) | binding result (cynomolgus HER3 antigen): no binding (tested: 40 nM) | Kd (cynomolgus EGFR antigen [7]): 0.56 nM

B4: chimeric anti-EGFR antibody 1565 (antibody, V domains shown)
VH: EVQLQQSGTELVKPGASVILSCKASGYTFTSYWMQWVKQRPGQGLEWIGNINPSNGGTSFNEEFKSRATLTVDKSSSTAYMQLSSLTSEDSAVYYCARDGGLYDGYYFDFWGQGTTLTVS
VL: NIVMTQSHKFMSTLIGARVSITCKASQDVDTAVAWYQQKPGQSPKLLIYWASTRHTGVPDRFTGSGSGTDFSLTVSNVQSEDLTDYFCQQYSSYPLTFGAGTKLELKR
notes: as for B1
binding result [2]: no binding (tested: 40 nM) | binding result (mouse HER3 antigen): no binding (tested: 40 nM) | binding result (murine HER4 antigen): no binding (tested: 40 nM) | binding result (human HER4 antigen): no binding (tested: 40 nM) | binding result [6]: no binding (tested: 40 nM) | binding result (mouse EGFR antigen): no binding (tested: 40 nM) | binding result (mouse HER2 antigen): no binding (tested: 40 nM) | binding result (cynomolgus HER3 antigen): no binding (tested: 40 nM) | Kd (cynomolgus EGFR antigen [7]): 28 nM | koff (cynomolgus EGFR antigen [7]): 0.016 s⁻¹ | kon (cynomolgus EGFR antigen [7]): 580000 M⁻¹ s⁻¹ | Kd [8]: 0.35 nM | koff [8]: 0.00058 s⁻¹ | kon [8]: 1.7e+06 M⁻¹ s⁻¹

B5: humanized anti-EGFR antibody 10560 (antibody, V domains shown)
VH: QVQLVQSGAEVKKPGASVKLSCKASGYTFTSYWMQWVRQAPGQGLEWIGNINPSNGGTSFNEEFKSRATMTRDTSTSTVYMELSSLRSEDTAVYYCARDGGLYDGYYFDFWGQGTLVTVSS
VL: AIQLTQSPSSLSASVGDRVTITCKASQDVDTAVAWYQQKPGKAPKLLIYWASTRHTGVPSRFSGSGSGTDFTLTVSSLQPEDFATYFCQQYSSYPLTFGGGTKVEIK
notes: also called 10550 (misprint in some paragraphs)
binding result [2]: no binding (tested: 40 nM) | binding result (mouse HER3 antigen): no binding (tested: 40 nM) | binding result (murine HER4 antigen): no binding (tested: 40 nM) | binding result (human HER4 antigen): no binding (tested: 40 nM) | binding result [6]: no binding (tested: 40 nM) | binding result (mouse EGFR antigen): no binding (tested: 40 nM) | binding result (mouse HER2 antigen): no binding (tested: 40 nM) | binding result (cynomolgus HER3 antigen): no binding (tested: 40 nM) | Kd (cynomolgus EGFR antigen [7]): 3.1 nM

B6: humanized anti-EGFR antibody 11302 (antibody, V domains shown)
VH: B5 VH with G56L
VL: B5 VL
binding result [2]: no binding (tested: 40 nM) | binding result (mouse HER3 antigen): no binding (tested: 40 nM) | binding result (murine HER4 antigen): no binding (tested: 40 nM) | binding result (human HER4 antigen): no binding (tested: 40 nM) | binding result [6]: no binding (tested: 40 nM) | binding result (mouse EGFR antigen): no binding (tested: 40 nM) | binding result (mouse HER2 antigen): no binding (tested: 40 nM) | binding result (cynomolgus HER3 antigen): no binding (tested: 40 nM) | Kd (cynomolgus EGFR antigen [7]): 1.2 nM
